From patent US20210261648A1 (published 2021) come the findings set out here.

In general, Kd refers to the equilibrium constant for the complex coming apart.

In assay [1] the target is T1, FcγRIIb extracellular domain with C-terminal His tag (human, UniProt P31994 43-217).
T1 construct: extracellular domain; For crystals it was expressed with kifunensine and trimmed with Endo F1; also called FcgRIIb; FcγRIIb extracellular region
T1 sequence (looked up): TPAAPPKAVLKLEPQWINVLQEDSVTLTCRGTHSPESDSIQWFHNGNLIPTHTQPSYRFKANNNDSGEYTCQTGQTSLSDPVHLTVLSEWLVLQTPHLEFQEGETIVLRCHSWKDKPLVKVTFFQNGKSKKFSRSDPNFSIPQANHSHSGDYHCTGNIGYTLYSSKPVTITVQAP
Kind of assay: SPR (Biacore), relative amount of binding.

Assay [2] deals with T2, FcγRIIa type H extracellular domain with C-terminal His tag (human, UniProt P12318 34-217).
T2 construct: extracellular domain; also called FcgRIIaH; FcγRIIa H
T2 sequence (looked up): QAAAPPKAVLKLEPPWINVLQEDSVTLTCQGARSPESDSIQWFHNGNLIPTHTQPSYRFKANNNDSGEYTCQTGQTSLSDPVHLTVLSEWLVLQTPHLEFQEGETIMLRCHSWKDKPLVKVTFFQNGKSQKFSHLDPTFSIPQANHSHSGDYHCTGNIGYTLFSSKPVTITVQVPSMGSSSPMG
Put plainly: SPR (Biacore), relative amount of binding. On the technique in general: SPR reads the build-up and loss of mass on a sensor chip optically.

The target in assay [3] is T3, FcγRIIa type H extracellular domain with C-terminal His tag (human, UniProt P12318 34-217).
T3 construct: extracellular domain; also called FcγRIIaH; FcgRIIaH; not shown: His tag attached to the C terminus
T3 sequence (looked up): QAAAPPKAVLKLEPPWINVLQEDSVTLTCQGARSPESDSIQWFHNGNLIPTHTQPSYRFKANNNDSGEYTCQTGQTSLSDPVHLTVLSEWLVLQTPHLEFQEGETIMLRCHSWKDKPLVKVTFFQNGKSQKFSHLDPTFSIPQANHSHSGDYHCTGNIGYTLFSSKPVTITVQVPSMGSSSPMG
Kind of assay: SPR (Biacore), antibody captured, FcγR as analyte.

The target in assay [4] is T4, FcγRIIa type R extracellular domain with C-terminal His tag (human, UniProt P12318 34-217).
T4 chain: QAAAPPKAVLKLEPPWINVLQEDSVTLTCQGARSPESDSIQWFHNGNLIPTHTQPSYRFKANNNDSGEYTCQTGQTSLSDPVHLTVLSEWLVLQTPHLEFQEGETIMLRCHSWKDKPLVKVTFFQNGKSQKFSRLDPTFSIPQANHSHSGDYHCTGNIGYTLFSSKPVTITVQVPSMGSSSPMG
Kind of assay: SPR (Biacore), antibody captured, FcγR as analyte.

Assay [5] has as its target T5, FcγRIa extracellular domain with C-terminal His tag (human, UniProt P12314 16-292).
T5 construct: also called FcgRIa; not shown: His tag attached to the C terminus
Put plainly: SPR (Biacore), antibody captured, FcγR as analyte.

In assay [6] the target is T6, FcγRIIb extracellular domain with C-terminal His tag (human, UniProt P31994 43-217).
T6 construct: extracellular domain; For crystallography it was expressed with kifunensine and trimmed with Endo F1; also called FcgRIIb; FcγRIIb extracellular region; not shown: His tag attached to the C terminus
T6 sequence (looked up): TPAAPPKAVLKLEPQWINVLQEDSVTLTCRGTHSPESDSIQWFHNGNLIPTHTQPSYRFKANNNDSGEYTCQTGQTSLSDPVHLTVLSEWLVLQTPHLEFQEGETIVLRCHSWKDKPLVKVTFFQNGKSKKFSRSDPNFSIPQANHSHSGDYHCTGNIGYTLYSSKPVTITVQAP
Put plainly: SPR (Biacore), antibody captured, FcγR as analyte.

In assay [7] the target is T6, FcγRIIb extracellular domain with …. Put plainly: SPR; KD for FcγRIIaR divided by KD for FcγRIIb.
Assay [8] has as its target T4, FcγRIIa type R extracellular domain …. Kind of assay: SPR; KD of IL6R-B3/IL6R-L divided by KD of the variant.
The target of assay [9] is T6, FcγRIIb extracellular domain with …. The description is as above.
Assay [10] shares this target. Put plainly: SPR; KD for FcγRIIaH divided by KD for FcγRIIb.

T5 sequence (P12314 16-292): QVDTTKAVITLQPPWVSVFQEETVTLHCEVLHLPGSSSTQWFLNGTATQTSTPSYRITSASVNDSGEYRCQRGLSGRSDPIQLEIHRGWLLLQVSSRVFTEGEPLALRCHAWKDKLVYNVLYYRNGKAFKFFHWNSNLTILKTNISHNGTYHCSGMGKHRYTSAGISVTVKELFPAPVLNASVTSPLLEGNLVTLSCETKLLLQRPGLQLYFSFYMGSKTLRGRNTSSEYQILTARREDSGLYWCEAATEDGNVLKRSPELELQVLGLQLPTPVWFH

B1: B3 variant of GpH7-B3/GpL16-k0 with Leu at position 328 (EU numbering) substituted with Glu (antibody, human IgG1, kappa)
heavy: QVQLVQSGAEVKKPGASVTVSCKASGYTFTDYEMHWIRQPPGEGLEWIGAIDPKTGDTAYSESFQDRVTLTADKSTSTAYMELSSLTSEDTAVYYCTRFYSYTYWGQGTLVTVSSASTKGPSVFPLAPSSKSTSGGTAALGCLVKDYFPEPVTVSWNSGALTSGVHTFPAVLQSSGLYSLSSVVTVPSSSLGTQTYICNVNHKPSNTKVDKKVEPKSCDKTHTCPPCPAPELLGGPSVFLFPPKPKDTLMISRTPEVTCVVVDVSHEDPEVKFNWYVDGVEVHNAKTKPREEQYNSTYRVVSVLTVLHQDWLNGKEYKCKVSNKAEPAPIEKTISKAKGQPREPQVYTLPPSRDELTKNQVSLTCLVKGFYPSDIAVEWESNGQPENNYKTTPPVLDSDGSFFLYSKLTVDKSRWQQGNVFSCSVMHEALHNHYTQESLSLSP
light: DIVMTQSPLSLPVTPGEPASISCQASESLVHSNRNTYLHWYLQKPGQSPQLLIYKVSNRFSGVPDRFSGSGSGTDFTLKISRVEAEDVGVYYCSQNTHVPPTFGQGTKVEIERTVAAPSVFIFPPSDEQLKSGTASVVCLLNNFYPREAKVQWKVDNALQSGNSQESVTEQDSKDSTYSLSSTLTLSKADYEKHKVYACEVTHQGLSSPVTKSFNRGEC
notes: also called mutation B
For the molecule B1, the binding result in assay [1] and in [2] was “binds” in each case.

B2: IL6R-BP563/IL6R-L (antibody, human IgG1, kappa)
heavy: QVQLQESGPGLVKPSETLSLTCAVSGHSISHDHAWSWVRQPPGEGLEWIGFISYSGITNYNPSLQGRVTISRDNSKNTLYLQMNSLRAEDTAVYYCARSLARTTAMDYWGEGTLVTVSSASTKGPSVFPLAPSSKSTSGGTAALGCLVKDYFPEPVTVSWNSGALTSGVHTFPAVLQSSGLYSLSSVVTVPSSSLGTQTYICNVNHKPSNTKVDKKVEPKSCDKTHTCPPCPAPDLLGDDSVFLFPPKPKDTLMISRTPEVTCVVVDVSEEDGDVKFNWYVDGVEVHNAKTKPREEQDNSTYRVVSVLTVLHQDWLNGKEYKCKVSNKALPRPIEKTISKAKGQPREPQVYTLPPSRDELTKNQVSLTCLVKGFYPSDIAVEWESNGQPENNYKTTPPVLDSDGSFFLYSKLTVDKSRWQQGNVFSCSVMHEALHNHYTQESLSLSP
light: not shown
notes: Anti-human IL-6R IgG1; alterations introduced into IL6R-B3 (G1d with K439E)
As to B2, the dissociation constant (Kd) in assay [3] is 8300 nM; in [4], 460 nM; in assay [5], 12 nM; in assay [6], 16 nM. Also, in [7], the “KD(IIaR)/KD(IIb)” value worked out at 29.1. Further, the “KD(IIaR) of the parent polypeptide/KD(IIaR) of the altered polypeptide” value in assay [8] was found to be 2.4. In assay [9], the “KD(IIb) of the parent polypeptide/KD(IIb) of the altered polypeptide” value stood at 196. In [10], the “KD(IIaH)/KD(IIb)” value is 525.

B3: IL6R-BP565/IL6R-L (antibody, human IgG1, kappa)
heavy: QVQLQESGPGLVKPSETLSLTCAVSGHSISHDHAWSWVRQPPGEGLEWIGFISYSGITNYNPSLQGRVTISRDNSKNTLYLQMNSLRAEDTAVYYCARSLARTTAMDYWGEGTLVTVSSASTKGPSVFPLAPSSKSTSGGTAALGCLVKDYFPEPVTVSWNSGALTSGVHTFPAVLQSSGLYSLSSVVTVPSSSLGTQTYICNVNHKPSNTKVDKKVEPKSCDKTHTCPPCPAPDLLGDDSVFLFPPKPKDTLMISRTPEVTCVVVDVAEEDGEVKFNWYVDGVEVHNAKTKPREEQDNSTYRVVSVLTVLHQDWLNGKEYKCKVSNKALPRPIEKTISKAKGQPREPQVYTLPPSRDELTKNQVSLTCLVKGFYPSDIAVEWESNGQPENNYKTTPPVLDSDGSFFLYSKLTVDKSRWQQGNVFSCSVMHEALHNHYTQESLSLSP
light: not shown
notes: as for B2
In the case of B3, the dissociation constant (Kd) in assay [3] was found to be 4700 nM; in assay [4] it was 230 nM; in assay [5], 2.4 nM; in assay [6], 5.5 nM. For the same molecule, in assay [7], the “KD(IIaR)/KD(IIb)” value stood at 41.5. In addition, the “KD(IIaR) of the parent polypeptide/KD(IIaR) of the altered polypeptide” value in assay [8] worked out at 4.8. For the same molecule, in [9], the “KD(IIb) of the parent polypeptide/KD(IIb) of the altered polypeptide” value stood at 565. In addition, the “KD(IIaH)/KD(IIb)” value in assay [10] amounted to 856.
